Source: patent US20110263824A1
One block for each binder: values may come before it.

Legend:
human serum protein [1] = test: adsorption to human serum protein-immobilized magnetic beads, western blot quantification
human serum protein [2] = test: adsorption of TM2 variant to human serum protein-immobilized magnetic beads, western blot quantification
human serum protein [3] = test: summary of Example 1-9: adsorption to human serum protein-immobilized magnetic beads
human serum protein [4] = test: human serum (1:800) adsorbed to TM2 variant-immobilized magnetic beads, HRP-labeled anti-human IgG detection
human serum protein [5] = test: adsorption of TM2 to human serum protein-immobilized magnetic beads, western blot quantification (reference)
human serum protein [6] = test: human serum (1:800) adsorbed to TM2-immobilized magnetic beads, HRP-labeled anti-human IgG detection

B1: TM2 K26A (protein)
chain: MSDVQSSLTGTWYNELNSKMELTANADGTLTGKYLSKVGDVYVPYPLSGRYNLQPPAGQGVALGWAVSWENSKIHSATTWSGQFFSESSPVILTQWLLSSSTARGDVWESTLVGNDSFTKTAPTEQQIAHAQLHCRAPRLK
decrease of adsorption to human serum protein compared to the wild type TM2 (human serum protein [1]): 30%
Non-specific binding of serum protein (%) (% of wild type TM2) (human serum protein [2]): 68
non-specific binding and adsorption relative to wild type TM2 (% of wild type TM2) (human serum protein [3]): 60

B2: TM2 D40NR104EK141E (protein)
chain: MSDVQSSLTGTWYNELNSKMELTANKDGTLTGKYLSKVGNVYVPYPLSGRYNLQPPAGQGVALGWAVSWENSKIHSATTWSGQFFSESSPVILTQWLLSSSTAEGDVWESTLVGNDSFTKTAPTEQQIAHAQLHCRAPRLE
Non-specific binding to serum protein (A450) (human serum protein [4]): 0.45 A450

B3: TM2 R104E (protein)
chain: MSDVQSSLTGTWYNELNSKMELTANKDGTLTGKYLSKVGDVYVPYPLSGRYNLQPPAGQGVALGWAVSWENSKIHSATTWSGQFFSESSPVILTQWLLSSSTAEGDVWESTLVGNDSFTKTAPTEQQIAHAQLHCRAPRLK
decrease of adsorption to human serum protein compared to the wild type TM2 (human serum protein [1]): 10%
Non-specific binding of serum protein (%) (% of wild type TM2) (human serum protein [2]): 90

B4: TM2 K141E (protein)
chain: MSDVQSSLTGTWYNELNSKMELTANKDGTLTGKYLSKVGDVYVPYPLSGRYNLQPPAGQGVALGWAVSWENSKIHSATTWSGQFFSESSPVILTQWLLSSSTARGDVWESTLVGNDSFTKTAPTEQQIAHAQLHCRAPRLE
decrease of adsorption to human serum protein compared to the wild type TM2 (human serum protein [1]): 40%
Non-specific binding of serum protein (%) (% of wild type TM2) (human serum protein [2]): 58
non-specific binding and adsorption relative to wild type TM2 (% of wild type TM2) (human serum protein [3]): 60

B5: TM2 K73Q (protein)
chain: MSDVQSSLTGTWYNELNSKMELTANKDGTLTGKYLSKVGDVYVPYPLSGRYNLQPPAGQGVALGWAVSWENSQIHSATTWSGQFFSESSPVILTQWLLSSSTARGDVWESTLVGNDSFTKTAPTEQQIAHAQLHCRAPRLK
decrease of adsorption to human serum protein compared to the wild type TM2 (human serum protein [1]): 40%
Non-specific binding of serum protein (%) (% of wild type TM2) (human serum protein [2]): 55
non-specific binding and adsorption relative to wild type TM2 (% of wild type TM2) (human serum protein [3]): 60

Second part, the binder after the results:

Non-specific binding of serum protein (%) (% of wild type TM2) (human serum protein [5]): 100
Non-specific binding to serum protein (A450) (human serum protein [6]): 0.67 A450
B6: tamavidin 2 (wild type) (protein)
chain: MSDVQSSLTGTWYNELNSKMELTANKDGTLTGKYLSKVGDVYVPYPLSGRYNLQPPAGQGVALGWAVSWENSKIHSATTWSGQFFSESSPVILTQWLLSSSTARGDVWESTLVGNDSFTKTAPTEQQIAHAQLHCRAPRLK

decrease of adsorption to human serum protein compared to the wild type TM2 (human serum protein [1]): 70%
Non-specific binding of serum protein (%) (% of wild type TM2) (human serum protein [2]): 25
non-specific binding and adsorption relative to wild type TM2 (% of wild type TM2) (human serum protein [3]): 20
B7: TM2 R104EK141E (protein)
chain: MSDVQSSLTGTWYNELNSKMELTANKDGTLTGKYLSKVGDVYVPYPLSGRYNLQPPAGQGVALGWAVSWENSKIHSATTWSGQFFSESSPVILTQWLLSSSTAEGDVWESTLVGNDSFTKTAPTEQQIAHAQLHCRAPRLE
